The nature of the data set: yeast display, Sf9 membrane polyspecificity reagent, FACS + sequencing; frameworks hold sequencing errors. The method in brief: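 A synthetic nanobody library was expressed on Saccharomyces cerevisiae BJ5465 by galactose induction for 36–48 hours. The library was stained for 1 hour at 4 °C with 10% biotinylated, detergent-solubilized Sf9 membrane reagent and enriched with streptavidin microbeads before FACS. Low and high (top ~1%) gates were set on anti-HA fluorescence for expression and streptavidin fluorescence for reagent binding, and each polyreactivity label reflects the gate of origin.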
“QVQLVESGGGLVQAGGSLRLSCAASGRTFYGYAMGWYRQAPGKERELVASISRDGSTNYADSVKGRFTISRDNAKNTVYLQMNSLKPEDTAVYYCAGDIWYYRYPIYYYSYDYWGQGTQVTVSS”: the “polyreactivity (PSR sort gate)” value is reported as “low polyreactivity”.
As for “QVQLVESGGGLVQAGGSLRLSCAASGRTFYGYTMGWYRQAPGKERELDAAIRTSGGSTYADSVKGRFTISRDNAKNTVYLQMNSLKPEDTAVYYCAAPRVVYYGTAPAYRYDYWGQGTQVTVSS”, the “polyreactivity (PSR sort gate)” value is reported as “high polyreactivity”.
In the case of “QVQLVESGGGLVQAGGSLRLSCAASGRTFYIYAMGWYRQAPGKERELVAAITWRGGRTYYADSVKGRFTISRDNAKNTVYLQMNSLKPEDTAVYYCAARTGQGPLYNHWGQGTQVTVSS”, the “polyreactivity (PSR sort gate)” value is on record as “high polyreactivity”.
As for “QVQLVESGGGLVQAGGSLRLSCAASGRTFYIYAMGWYRQAPGTERELVAAITGCGGSTYYADSVKGRFTISRDNAKNTVYLQMNSLKPEDTAVYYCAAGFYGDGYTQGYGYWGQGTQVTVSS”, the “polyreactivity (PSR sort gate)” value is reported as “low polyreactivity”.
Consider “QVQLVESGGGLVQAGGSLRLSCAASGRTFYKNAMGWYRQAPGKERELVAAISSRGGRTTYADSVKGRFTISRDNAKNTVYLQMNSLKPEDTAVYYCATDWAQVYHGTTKYYYWGQGTQVTVSS”, for which the “polyreactivity (PSR sort gate)” value is “high polyreactivity”.
Take “QVQLVESGGGLVQAGGSLRLSCAASGRTFYKNTMGWYRQAPGKERELVAGISQRGGRTYYADSVKGRFTISRDNAKNTVYLQMNSLKPEDTAVYYCAADRYSYGSNGYPRFEYYYWGQGTQVTVSS”: the “polyreactivity (PSR sort gate)” value was “high polyreactivity”.
“QVQLVESGGGLVQAGGSLRLSCAASGRTFYKNTMGWYRQAPGKERELVATITRRGGTTYYADSVKGRFTISRDKAKNTVYLQMNSLKPEDTAVYYCAKDASTEKYDYWGQGTQVTVSS”: the “polyreactivity (PSR sort gate)” value is on record as “low polyreactivity”.
As for “QVQLVESGGGLVQAGGSLRLSCAASGRTFYKYALGWYRQAPGKERELVAAITSGGSTNYADSVKGRFTISRDNAKYTVYLQMNSLKPEDTAVYYCNASFEENFPFGDYDYWGQGTQVTGSS”, the “polyreactivity (PSR sort gate)” value was “high polyreactivity”.
Under “QVQLVESGGGLVQAGGSLRLSCAASGRTFYKYGMGWYRQAPGKERELVAAISWRTTSTYYADSVKGRFTISRDNAKNTVYLQMNSLKPEDTAVYYCNARRYLYFYGRGAQELDYWGQGTQVTVSS” stands “high polyreactivity”.
Regarding “QVQLVESGGGLVQAGGSLRLSCAASGRTFYKYGMGWYRQAPGKERELVARINSNGGSTYYADSVKGRFTISRDNAKNTVYLQMNSLKPEDTAVYYCAKRGSYRTKPASEYDSWGQGTQVTVSS”, the “polyreactivity (PSR sort gate)” value is reported as “low polyreactivity”.
For “QVQLVESGGGLVQAGGSLRLSCAASGRTFYLNAMGWYRQAPGKEREFVARITWSGGSTYYADSVKGRFTISRDNAKNTVYLQMNSLKPEDTAVYYCIRLSSYHMDYWGQGTQVTVSS”, the “polyreactivity (PSR sort gate)” value is recorded as “high polyreactivity”.
Under “QVQLVESGGGLVQAGGSLRLSCAASGRTFYLYAMGWYRQAPGKERELVAAITSGGSTYYADSVKGRFTISRDNAKNTVYLQMNSLKPEDTAVYYCAKRPVSVGYGYPRVSWGYDYWGQGTQVTVSS” stands “high polyreactivity”.
For the sequence “QVQLVESGGGLVQAGGSLRLSCAASGRTFYLYGMGWYRQAPGKERELVAAITLSDGSTYYADSVKGRFTISRDNAKNTVYLQMKSLKPEDTAVYYCAARDYPFPYAMNYWGQGTQVTVSS”, the “polyreactivity (PSR sort gate)” value was “low polyreactivity”.
For “QVQLVESGGGLVQAGGSLRLSCAASGRTFYLYTMGWYIQAPGKERELVAAISRGGRTYADSVKGRFTISRDNAKNTVYLQMNSLKPEDTAVYYCAAESVYHGWSYQHGKGDYWGQGTQVTVSS”, the “polyreactivity (PSR sort gate)” value is “low polyreactivity”.
With “QVQLVESGGGLVQAGGSLRLSCAASGRTFYNAMGWYRQAPGKERELVAAITTGGGTKYADSVKGRFTISRDNAKNTVYLQMNSLKPEDTAVYYCNAYRQYRYDYWGQGTQVTVSS” the entry was “low polyreactivity”; with “QVQLVESGGGLVQAGGSLRLSCAASGRTFYNYAMGWYRQAPGKERELVATITGRGGRTFYADSVKGRFTISRDNAKNTVYLQMNSLKPEDTAVYYCDAYRSASPYYTLYVEHDYWGQGTQVTVSS”, “low polyreactivity”.
Regarding “QVQLVESGGGLVQAGGSLRLSCAASGRTFYPNAMGWYRQAPGKERELVAAISLSGTRTNYADSVKGRFTISRDNAKNTVYLQMNSLKPEDTAVYYCAARYGNFDGRNYYWGQGTQVTVSS”, the “polyreactivity (PSR sort gate)” value was “high polyreactivity”.
Regarding “QVQLVESGGGLVQAGGSLRLSCAASGRTFYPYAMGWYRKAPGKERELVAAITSDGSTNYADSVKGRFTISRDNAKNTVYLQMNSLKPEDTAVYYCATAGYSWVSYDYWGQGTQVTVSS”, the “polyreactivity (PSR sort gate)” value is “low polyreactivity”.
Consider “QVQLVESGGGLVQAGGSLRLSCAASGRTFYPYAMGWYRQAPGKERELVARISASGGSTYYADSVKGRFTISRDNAKNTVYLQMNSLKPEDTAVYYCARESFWRSLMDYWGQGTQVTVSS”, for which the “polyreactivity (PSR sort gate)” value was “high polyreactivity”.
With “QVQLVESGGGLVQAGGSLRLSCAASGRTFYQYAMGWYRQAPGKERELVAAISRRGGTTYYADSVKGRFTISRDNAKNTVYLQMNSLKPEDTAVYYCAASSLPAGEMYYWGQGTQVTVSS” the entry was “high polyreactivity”.
“QVQLVESGGGLVQAGGSLRLSCAASGRTFYQYDMGWYRQAPGKERDLVAAIDWSGGSTYYADSVKGRFTISRDNAKNTVYLQMNSLKPEDTAVYYCNADAYPHPVVGYDYWGQGTQVTVSS”: the “polyreactivity (PSR sort gate)” value is listed as “low polyreactivity”.
Under “QVQLVESGGGLVQAGGSLRLSCAASGRTFYQYDMGWYRQEPGKERAFVADIDWSGGSTYYADSVKGRFTISRDNAKNTVYLQMNSLKPEDTAVYYCNADAYPHPVVGYDYWGQGTQVTVSS” stands “low polyreactivity”; under “QVQLVESGGGLVQAGGSLRLSCAASGRTFYRNAMGWYRQAPGKERELVAAISQRGGRTYYADSVKGRFTISRDNAKNSVYLQMNSLKPEDTAVYYCAASPIYPVYRRHGYWGQGTQVTVSS”, “high polyreactivity”; under “QVQLVESGGGLVQAGGSLRLSCAASGRTFYRNAMGWYRQAPGKERELVAAISSGGSTTYADSVKGRFTISRDNAKNTVYLQMNSLKPEDTAVYYCAARSHAGSVSPRLKEYDYWGQGTQVTVSS”, “low polyreactivity”.
Take “QVQLVESGGGLVQAGGSLRLSCAASGRTFYRNAMGWYRQAPGKERELVAAISWSGGRTFYADSVKGRFTISRDNAKNTVYLQMNSLKPEDTAVYYCAKTYTTPGYYRYDYWGQGTQVTVSS”: the “polyreactivity (PSR sort gate)” value is on record as “high polyreactivity”.
As to “QVQLVESGGGLVQAGGSLRLSCAASGRTFYRNAMGWYRQAPGKERELVAAITSSGASTYYADSVKGRFTISRDNAKNTVYLQMNSLKPEDTAVYYCAAKYVYSVGNYRYDYWGQGTQVTVSS”, the “polyreactivity (PSR sort gate)” value is recorded as “low polyreactivity”.
With “QVQLVESGGGLVQAGGSLRLSCAASGRTFYRNAMGWYRQAPGKERELVATLNSGGSTHYADSVKGRFTISRDNAKNTVYLQMNSLKPEDTAVYYCAARSPSYRGSLSYYWGQGTQVTVSS” the entry was “high polyreactivity”; with “QVQLVESGGGLVQAGGSLRLSCAASGRTFYRNARGWYRQAPGKERELVAVISSSGVRTYYADSVKGRFTISRDNAKNTVYLQRNSQKPEDTAVYYCAADSNSYYRGFDYWGQGTQVTVSS”, “high polyreactivity”.
With “QVQLVESGGGLVQAGGSLRLSCAASGRTFYRNVMGWYRQAPGKVRELVAVITSGGRTNYADSVKGRFTISRDNAKNTVYLQMNSLKPEDTAVYSCNTALSSRSNKMYYWGQGTQVTVSS” the entry was “high polyreactivity”.
Under “QVQLVESGGGLVQAGGSLRLSCAASGRTFYRYAMGCYRQAPGKERELVAAISWRGGSTNYADSVKGRFTISRDNAKNTVYLQMNSLKPEDTAVYYCNAKFFLPATTRYYYWGQGTQVTVSS” stands “high polyreactivity”; under “QVQLVESGGGLVQAGGSLRLSCAASGRTFYRYAMGWYRQAPGKERELVAAITASGGSTYYADSVKGRFTISRDNAKNTVYLQMNSLKPEDTAVYYCAKGGKSRYSTWHGDYWGQGTQVTVSS”, “high polyreactivity”.
For the sequence “QVQLVESGGGLVQAGGSLRLSCAASGRTFYRYAMGWYRQAPGKERELVAAITWSGGSTYYADSVKGRFTTSRDNAKNTVYLQMNSLKPEDTAVYYCAADAALITYYGWADMYYWGQGTQVTVSS”, the “polyreactivity (PSR sort gate)” value was “low polyreactivity”.
Regarding “QVQLVESGGGLVQAGGSLRLSCAASGRTFYRYAMGWYRQAPGKERELVARIRSGGSTNYADSVKGRFTISRDNAKNTVYLQMNSLKPEDTAVYYCAVDDAYPDRYDYWGQGTQVTVSS”, the “polyreactivity (PSR sort gate)” value is given as “high polyreactivity”.
As for “QVQLVESGGGLVQAGGSLRLSCAASGRTFYRYAMGWYRQAPGKEREYVASITRGGGITYYADSVKGRFTISRDNAKNTVYLQMNSLKPEDSAVYYCAARQYGPRYTFYYWGQGTQVTVSS”, the “polyreactivity (PSR sort gate)” value is on record as “high polyreactivity”.
For “QVQLVESGGGLVQAGGSLRLSCAASGRTFYRYTMGWYRQAPGKERQLVAGISWRGGTTYYADSVKGRFTISRDNAKNTVYLQMNSLKPEDTAVYYCAAKAGYRYGSLAYYKYDYWGLGTQVTVSS”, the “polyreactivity (PSR sort gate)” value is “high polyreactivity”.
Under “QVQLVESGGGLVQAGGSLRLSCAASGRTFYSNAMGWYRESPGKERELVAAISRSGGTTYYADSVKGRFTISRDHAKNTVSLLMNSLKPEDTAVYYCNTLRYGTTGKYDYWGQGTQVTVSS” stands “high polyreactivity”; under “QVQLVESGGGLVQAGGSLRLSCAASGRTFYSNAMGWYRQAPGKERELVAAISYRGGRTYYADSVKGRFTISRDNAKNTVYLQMNSLKPEDTAVYYSAADAYVLFYGDWYECDYWGQGTQVTVSS”, “high polyreactivity”; under “QVQLVESGGGLVQAGGSLRLSCAASGRTFYSNAMGWYRQPPGKERELVAAIRRSGGSTYYADSVKGRFTISRDNAKNTVYLQMNSLKPEDTAVYYCNAPHHRYDWGQGTQVTVSS”, “high polyreactivity”.
As to “QVQLVESGGGLVQAGGSLRLSCAASGRTFYSYAMGGYRQAPGKERELVARITWSGGTYYADSVKGRFTISRDNAKNTVYLQMNSLKPEDTAVYYCAAKYWKWYHYGFGYWGQGTQVTVSS”, the “polyreactivity (PSR sort gate)” value is “high polyreactivity”.
With “QVQLVESGGGLVQAGGSLRLSCAASGRTFYSYAMGWYRQAPGKEREFVAAISVRGVITYYADSVKGRFTISRDNAKNTVYLQMNSLKPEDTAVYDCAADWSGYYTYDYWGQGTQVTVSS”, the “polyreactivity (PSR sort gate)” value is on record as “low polyreactivity”.
